From publication PMC11054746, “GRPR-Antagonists Carrying DOTAGA-Chelator via Positively Charged Linkers: Perspectives for Prostate Cancer Theranostics” (Pharmaceutics, 2024)
Starred links: 1 amine or outer side, 2 acyl side, 3 side chain; linkers in the order of their positions; H or OH if unused. Non-standard residues stand in square brackets, D forms with d. Residues, ends and D or L forms follow the SMILES beside them. *: point of attachment. DOTAGA = O=C(O)CN1CCN(CC(=O)O)CCN(C(CCC(=O)*)C(=O)O)CCN(CC(=O)O)CC1; Sta = CC(C)C[C@H](N)[C@@H](O)CC(=O)O; X1 = O=C(CN1CCC(N[*:1])CC1)[*:2]; Sar = CNCC(=O)O

Legend:
[1] = Radiochemical stability: indium release in PBS or with EDTA excess, by iTLC; assay type: physicochemical; settings: room temperature, 0.2 M citric acid, mean ± sd, n = 3
Procedure: The radiochemical yield was analyzed with instant thin layer chromatography (iTLC) strips (Agilent Technologies, Santa Clara, CA, USA), using 0.2 M citric acid buffer as a mobile phase (Rf = 0 for the radiolabeled peptide and Rf = 1 for free indium). The iTLC results were analyzed using Cyclone® Plus Phosphorimager (PerkinElmer, Hägersten, Sweden). The radiochemical stability was determined by incubating the radiolabeled compounds with phosphate-buffered saline (PBS) or a 1000-fold molar excess of ethylenediaminetetraacetic acid (EDTA) for 1 h at room temperature. The percentage of indium release was assessed by iTLC using 0.2 M citric acid as mobile phase. Stability tests were performed in triplicate for each compound.

PC-3 cells [2] = experiment: In vitro binding specificity assay (uptake with and without GRPR blocking by NOTA-PEG2-RM26); assay type: cell-based, human; settings: 1 nM radiotracer, 1 h, unblocked
Procedure: The in vitro binding assay was performed on PC-3 cells seeded in 6-well plates (1.15 × 10^6 cells/well). Media containing a GRPR-blocking agent (NOTA-PEG2-RM26, 1 μM) were added to half of the wells. The plates were incubated at room temperature for 10 min and the medium containing the radiotracer under investigation was added to all wells in a final concentration of 1 nM. The plates were incubated for 1 h and then treated with 0.25% trypsin-EDTA to detach cells. The cells were collected and their activity was measured using the gamma counter.

human GRPR = molecular target: T1, human GRPR (Homo sapiens, UniProt P30550); experiment: Affinity measurements in real time (LigandTracer) on PC-3 cells; assay type: binding; settings: room temperature, 1:2 fitting interaction model
T1 construct: host or cells: PC-3 human prostate adenocarcinoma cells
Procedure: The association curves were recorded at 1 nM and 3 nM of the radiolabeled peptides for 300 min. After reaching the plateau, the medium containing the radioligand was replaced with fresh medium and the dissociation curve was measured for about 16 h. The obtained sensorgrams were analyzed using TracerDrawer (Ridgeview Instruments AB, Uppsala, Sweden) and the dissociation constants (KD) were calculated.

PC-3 cells [3] = experiment: Cellular internalization; assay type: cell-based, human; settings: 1 nM, acid wash, mean of 3 dishes ± sd, normalized to maximum cell association at 24 h
Procedure: For the cellular internalization assay, PC-3 cells (1 × 10^6 cells/dish) were used. The cells were incubated with 1 mL (1 nM) of solution containing the radiolabeled peptide under evaluation. At the 4 h and 24 h time points, the cells were treated with an acid wash (0.2 M glycine buffer with 0.15 M NaCl and 4 M urea, pH 2) for 5 min on ice to remove the membrane-bound peptide. After collection of acid fractions, the cells were treated with 1 M NaOH for at least 30 min and the cell debris were scraped and collected. The activity content in samples was measured using the gamma counter.

in vivo = experiment: in vivo; parameters: species or system BALB/C nu/nu mice; settings: BALB/C nu/nu, mouse, iv, total radioactivity; for tissue to tissue ratio at 4 h / tissue to tissue ratio at 24 h: Tumor-to-organ ratio
Procedure: (§1) All in vivo studies were performed following European guidelines on laboratory animal protection. The in vivo stability experiments were carried out in healthy male Swiss albino mice; the study protocol was approved by the Department of Agriculture and Veterinary Service of the Prefecture of Athens (protocol number #440448, 01-06-2021). The biodistribution, in vivo targeting specificity assay, and SPECT/CT imaging experiments were carried out on BALB/C nu/nu mice. The Ethics Committee for Animal Research in Uppsala (Sweden) approved the latter in vivo animal studies (permit number 00473/21). The BALB/C nu/nu mice were implanted with GRPR-positive prostate cancer xenografts by subcutaneous injection on the right hind leg of PC-3 cells suspended in PBS (7 × 10^6 cells/mouse) four weeks before the biodistribution studies.
(§2) The mice were iv injected with 40 pmol peptide (30 kBq in a total volume of 100 μL 1% bovine serum albumin (BSA) in PBS). […] At the indicated time points, mice were euthanized under anesthesia. The organs of interest were collected, weighed, and the sample radioactivity content was measured on the gamma counter. The percentage of injected activity per gram (%IA/g) of collected tumors, organs and tissues, the %IA for the remaining gastrointestinal tract and carcass, as well as the tumor-to-organ ratios (T/O) were calculated.

PC-3 xenografts = experiment: in vivo; parameters: species or system BALB/C nu/nu mice; settings: mouse
Procedure: as §1, §2

[4] = 40 pmol, GI (gastrointestinal tract, GIT) uptake

T1 sequence (P30550 whole entry): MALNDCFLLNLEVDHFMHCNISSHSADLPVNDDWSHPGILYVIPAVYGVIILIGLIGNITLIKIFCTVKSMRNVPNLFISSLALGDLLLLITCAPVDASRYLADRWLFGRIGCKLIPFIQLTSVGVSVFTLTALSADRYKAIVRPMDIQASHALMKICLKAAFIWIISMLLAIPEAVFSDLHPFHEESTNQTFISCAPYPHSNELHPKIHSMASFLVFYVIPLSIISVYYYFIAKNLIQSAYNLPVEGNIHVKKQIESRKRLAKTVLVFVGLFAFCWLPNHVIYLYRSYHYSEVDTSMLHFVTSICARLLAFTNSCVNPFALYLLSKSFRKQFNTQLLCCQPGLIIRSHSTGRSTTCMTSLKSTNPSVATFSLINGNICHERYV

ka1 (human GRPR; association at 1 and 3 nM): 344000 M⁻¹ s⁻¹
ka2 (human GRPR; association at 1 and 3 nM): 346000 M⁻¹ s⁻¹
kd1 (human GRPR; dissociation about 16 h): 2e-06 s⁻¹
kd2 (human GRPR; dissociation about 16 h): 2.08e-06 s⁻¹
SMILES: CC(C)C[C@H](NC(=O)C[C@H](O)[C@H](CC(C)C)NC(=O)[C@H](Cc1c[nH]cn1)NC(=O)CN(C)C(=O)[C@@H](NC(=O)[C@H](C)NC(=O)[C@H](Cc1c[nH]c2ccccc12)NC(=O)[C@H](CCC(N)=O)NC(=O)[C@@H](Cc1ccccc1)NC(=O)CN1CCC(NC(=O)[C@H](CCCNC(=N)N)NC(=O)[C@H](CCCNC(=N)N)NC(=O)CCC(C(=O)O)N2CCN(CC(=O)O)CCN(CC(=O)O)CCN(CC(=O)O)CC2)CC1)C(C)C)C(N)=O (stereo partly drawn) [[^111In]In-AU-RM26-M4, metal not drawn] ({DOTAGA}-RR[X1][dF]QWAV[Sar]H[Sta]L-NH2)
released [111In]In3+, ×1000 EDTA (1 h) ([1]; 1000-fold molar excess of EDTA): 3.2 ± 0.1% (3)
released [111In]In3+, PBS ([1]; incubation in PBS, 1 h): 1.9 ± 0.1% (3)
cell uptake, fold higher than the other analogs of the series (PC-3 cells [2]): 2 fold
internalized fraction at 24 h (PC-3 cells [3]): 33 ± 7%
tissue uptake at 4 h (in vivo; 40 pmol, Blood uptake): 0.122 ± 0.0013 %ID/g
tissue uptake at 24 h (in vivo; 40 pmol, Blood uptake): 0.02 ± 0.01 %ID/g
tissue uptake at 4 h (in vivo; 40 pmol, Bone uptake): 0.13 ± 0.04 %ID/g
tissue uptake at 24 h (in vivo; 40 pmol, Bone uptake): 0.09 ± 0.02 %ID/g
tissue uptake dose at 4 h (in vivo; 40 pmol, Carcass (whole body) uptake): 3 ± 1.5 %ID
tissue uptake dose at 24 h (in vivo; 40 pmol, Carcass uptake): 0.8 ± 0.2 %ID
tissue uptake dose at 4 h (in vivo; [4]): 1.4 ± 0.3 %ID
tissue uptake dose at 24 h (in vivo; [4]): 0.15 ± 0.03 %ID
tissue uptake at 4 h (in vivo; 40 pmol, Kidneys uptake): 7 ± 1 %ID/g
tissue uptake at 24 h (in vivo; 40 pmol, Kidneys uptake): 2.7 ± 0.1 %ID/g
tissue uptake at 4 h (in vivo; 40 pmol, Liver uptake): 0.6 ± 0.11 %ID/g
tissue uptake at 24 h (in vivo; 40 pmol, Liver uptake): 0.31 ± 0.07 %ID/g
tissue uptake at 4 h (in vivo; 40 pmol, Lungs uptake): 0.2 ± 0.08 %ID/g
tissue uptake at 24 h (in vivo; 40 pmol, Lungs uptake): 0.06 ± 0.02 %ID/g
tissue uptake at 4 h (in vivo; 40 pmol, Muscle uptake): 0.06 ± 0.02 %ID/g
tissue uptake at 24 h (in vivo; 40 pmol, Muscle uptake): 0.02 ± 0.01 %ID/g
tissue uptake at 4 h (in vivo; 40 pmol, Pancreas uptake): 3.4 ± 0.6 %ID/g
tissue uptake at 24 h (in vivo; 40 pmol, Pancreas uptake): 0.36 ± 0.08 %ID/g
tissue uptake at 4 h (in vivo; 40 pmol, Small Int uptake): 1.1 ± 0.3 %ID/g
tissue uptake at 24 h (in vivo; 40 pmol, Small Int uptake): 0.11 ± 0.03 %ID/g
tissue uptake at 4 h (in vivo; 40 pmol, Spleen uptake): 0.23 ± 0.07 %ID/g
tissue uptake at 24 h (in vivo; 40 pmol, Spleen uptake): 0.14 ± 0.04 %ID/g
tissue uptake at 4 h (in vivo; 40 pmol, Tumor uptake): 15 ± 5 %ID/g
tissue uptake at 24 h (in vivo; 40 pmol, Tumor uptake): 7 ± 3 %ID/g
tissue to tissue ratio at 4 h (in vivo; 40 pmol, Blood): 123 ± 43
tissue to tissue ratio at 24 h (in vivo; 40 pmol, Blood): 369 ± 228
tissue to tissue ratio at 4 h (in vivo; 40 pmol, Bone): 119 ± 40
tissue to tissue ratio at 24 h (in vivo; 40 pmol, Bone): 79 ± 25
tissue to tissue ratio at 4 h (in vivo; 40 pmol, Kidneys): 2.3 ± 0.9
tissue to tissue ratio at 24 h (in vivo; 40 pmol, Kidneys): 2.6 ± 0.9
tissue to tissue ratio at 4 h (in vivo; 40 pmol, Liver): 25 ± 11
tissue to tissue ratio at 24 h (in vivo; 40 pmol, Liver): 23 ± 9
tissue to tissue ratio at 4 h (in vivo; 40 pmol, Lungs): 90 ± 59
tissue to tissue ratio at 24 h (in vivo; 40 pmol, Lungs): 120 ± 61
tissue to tissue ratio at 4 h (in vivo; 40 pmol, Muscle): 307 ± 168
tissue to tissue ratio at 24 h (in vivo; 40 pmol, Muscle): 347 ± 176
tissue to tissue ratio at 4 h (in vivo; 40 pmol, Pancreas): 4 ± 1
tissue to tissue ratio at 24 h (in vivo; 40 pmol, Pancreas): 20 ± 5
tissue to tissue ratio at 4 h (in vivo; 40 pmol, Small Int): 15 ± 7
tissue to tissue ratio at 24 h (in vivo; 40 pmol, Small Int): 67 ± 35
tissue to tissue ratio at 4 h (in vivo; 40 pmol, Spleen): 71 ± 37
tissue to tissue ratio at 24 h (in vivo; 40 pmol, Spleen): 54 ± 30
tissue uptake dose at 4 h (in vivo; Carcass uptake, Block): 1.6 ± 0.3 %ID
tissue uptake dose at 4 h (in vivo; GI (gastrointestinal tract, GIT) uptake, Block): 0.5 ± 0.2 %ID
Blood uptake (PC-3 xenografts; BALB/C nu/nu, iv, 40 pmol, 4 h): 0.125 ± 0.0004 %IA/g
kidney uptake at 24 h pi retained as % of the 4 h renal value (PC-3 xenografts): < 38%
pancreas uptake at 24 h pi as % of the initial 4 h uptake (PC-3 xenografts): less than 10%
